Drawing on US20160289285A1 (Molecular Partners, published 2016), this text covers Kd, binding result and IC50 for 16 molecules.

Changes are numbered by the printed parent chain.

B1: Protein #16 (designed binder)
chain: MRGSHHHHHHGSDLDKKLLEAARAGQDDEVRILMANGADVNAKDSTGYTPLHLAAPWGHLEIVEVLLKAGADVNAKDYQGWTPLHLAAAVGHLEIVEVLLKAGADVNAQDKSGKTPADLAADAGHEDIAEVLQKAA
B2: Protein #21 (designed binder)
chain: B1 chain with M34L, A35K, N36A, Y48W, L60P
B3: Protein #12 (designed binder)
chain: MRGSHHHHHHGSDLGKKLLEAARAGQDDEVRILMANGADVNAFDWMGWTPLHLAAHEGHLEIVEVLLKNGADVNATDVSGYTPLHLAAADGHLEIVEVLLKHGADVNTKDNTGWTPLHLSADLGHLEIVEVLLKNGADVNAQDKFGKTAFDISIDNGNEDLAEILQKAA
B4: Protein #13 (designed binder)
chain: MRGSHHHHHHGSDLDKKLLEAARAGQDDEVRILLKAGADVNAKDYLGWTPLHLAAHEGHLEIVEVLLKAGADVNAKDVSGYTPLHLAAADGHLEIVEVLLKAGADVNAKDNTGWTPLHLSADLGHLEIVEVLLKAGADVNAQDKFGKTAFDISIDNGNEDLAEILQKAA
B5: Protein #14 (designed binder)
chain: MRGSHHHHHHGSDLGKKLLEAARAGQDDEVRILMANGADVNTADSTGWTPLHLAAPWGHPEIVEVLLKNGADVNAHDYQGWTPLHLAATLGHLEIVEVLLKHGADVNAQDKFGKTAFDISIDNGNEDLAEILQKAA
B6: Protein #17 (designed binder)
chain: B5 chain with T42A, A43R, H76A, Y78F, T89A, L90V
B7: Protein #22 (designed binder)
chain: B5 chain with G15D, T42A, A43K, P60L, N69A, H76K, Y78F, T89A, L90V, H102A
B8: Protein #15 (designed binder)
chain: B5 chain with A55V, P60L, N69Y, H76K, Y78F, T89A, L90I, L93Q, H102N
B9: Protein #26 (designed binder)
chain: MRGSHHHHHHGSDLGKKLLEAARAGQDDEVRILLKAGADVNAKDRYGDTPLHLAADIGHLEIVEVLLKAGADVNAEDYFGNTPLHLAASYGHLEIVEVLLKAGADVNAKDDYGNTPLHLAANTGHLEIVEVLLKAGADVNAQDKSGKTPADLAADAGHEDIAEVLQKAA
B10: Protein #28 (designed binder)
chain: MRGSHHHHHHGSDLGMKLLEAARAGQDDEVRILMANGADVNAHDTWGLTPLHLAAFHGHQEIVEVLLKHGADVNAQDFYGKTPLHLAALRGHLEIVEVLLKYGADVNAQDQFGKTAFDISIDNGNEDLAEILQKAA
B11: Protein #37 (designed binder)
chain: MRGSHHHHHHGSDLGKKLLEAARAGQDDEVRILMANGADVNASDDTGLTPLHLAANRGHLEIVEVLLKHGADVNANDFAGMTPLHLAANVGHLEIVEVLLKYGADVNAHDDYGLTPLHLAANWRHLEIVEVLLKNGADVNAQDKFGKTAFDISIDNGNEDLAEILQKAA
B12: Protein #23 (designed binder)
chain: MRGSHHHHHHGSDLGKKLLEAARAGQDDEVRILMANGADVNAKDRFGDTPLHLAADIGHLKIVEVLLKHGADVNAEDWFGNTPLHLAASMGHLEIVEVLLKYGADVNAMDDYGNTPLHLAANTGHLEIVEVLLKHGADVNAQDKFGKTAFDISIDNGNEDLAEILQKAA
B13: Protein #109 (designed binder)
chain: MRGSHHHHHHGSDLGKKLLEAARAGQDDEVRILMANGADVNAKDYFSHTPLHLAARNGHLKIVEVLLKAGADVNAKDFAGKTPLHLAANDGHLEIVEVLLKHGADVNAQDIFGKTPADIAADAGHEDIAEVLQKLGSPTPTPTTPTPTPTTPTPTPTGSRSDLGKKLLEAARAGQDDEVRILMANGADVNAKDYFSHTPLHLAARNGHLKIVEVLLKAGADVNAKDFAGKTPLHLAANDGHLEIVEVLLKHGADVNAQDIFGKTPADIAADAGHEDIAEVLQKLGSPTPTPTTPTPTPTTPTPTPTGSRSDLGKKLLEAARAGQDDEVRILMANGADVNAKDKDGYTPLHLAAREGHLEIVEVLLKAGADVNAKDKDGYTPLHLAAREGHLEIVEVLLKAGADVNAQDKFGKTAFDISIDNGNEDLAEILQKLGSPTPTPTTPTPTPTTPTPTPTGSRSDLGKKLLEAARAGQDDEVRILMANGADVNAKDKDGYTPLHLAAREGHLEIVEVLLKAGADVNAKDKDGYTPLHLAAREGHLEIVEVLLKAGADVNAQDKFGKTAFDISIDNGNEDLAEILQKLN
B14: Protein #102 (designed binder)
chain: MRGSHHHHHHGSDLGKKLLEAARAGQDDEVRELLKAGADVNAKDYFSHTPLHLAARNGHLKIVEVLLKAGADVNAKDFAGKTPLHLAANDGHLEIVEVLLKAGADVNAQDIFGKTPADIAADAGHEDIAEVLQKAAGSPTPTPTTPTPTPTTPTPTPTGSDLGKKLLEAARAGQDDEVRILLKAGADVNAKDRYGDTPLHLAADIGHLEIVEVLLKAGADVNAEDYFGNTPLHLAASYGHLEIVEVLLKAGADVNAKDDYGNTPLHLAANTGHLEIVEVLLKAGADVNAQDKSGKTPADLAADAGHEDIAEVLQKAAGSPTPTPTTPTPTPTTPTPTPTGSDLDKKLLEAARAGQDDEVRILLKAGADVNAKDSTGWTPLHLAAPWGHPEIVEVLLKAGADVNAKDFQGWTPLHLAAAVGHLEIVEVLLKAGADVNAQDKSGKTPADLAADAGHEDIAEVLQKAAGSPTPTPTTPTPTPTTPTPTPTGSDLGKKLLEAARAGQDDEVRELLKAGADVNAKDYFSHTPLHLAARNGHLKIVEVLLKAGADVNAKDFAGKTPLHLAANDGHLEIVEVLLKAGADVNAQDIFGKTPADIAADAGHEDIAEVLQKAA
B15: Protein #110 (designed binder)
chain: MRGSHHHHHHGSDLGKKLLEAARAGQDDEVRELLKAGADVNAKDYFSHTPLHLAARNGHLKIVEVLLKAGADVNAKDFAGKTPLHLAANEGHLEIVEVLLKAGADVNAQDIFGKTPADIAADAGHEDIAEVLQKAAGSPTPTPTTPTPTPTTPTPTPTGSDLGKKLLEAARAGQDDEVRELLKAGADVNAKDKSGNTPLHLAARFGHLEIVEFLLKAGADVNAKDETGKTPLHLAAIWGHLEIVEVLLKAGADVNAKDLYGRTPLHLAAKLRHLEIVEVLLKAGADVNAQDKFGKTAFDISIDNGNEDLAEILQKAAGSPTPTPTTPTPTPTTPTPTPTGSDLDKKLLEAARAGQDDEVRELLKAGADVNALDQIGWTPLHLAANYGHLEIVEVLLKAGADVNAKDLWGQTPLHLAAWKGHLEIVEVLLKAGADVNAKDTDGLTPLHLAAIRGHLEIVEVLLKAGADVNAQDKSGKTPADLAADAGHEDIAEVLQKAAGSPTPTPTTPTPTPTTPTPTPTGSDLGKKLLEAARAGQDDEVRELLKAGADVNAKDYFSHTPLHLAARNGHLKIVEVLLKAGADVNAKDFAGKTPLHLAANEGHLEIVEVLLKAGADVNAQDIFGKTPADIAADAGHEDIAEVLQKAA
B16: Protein #97 (designed binder)
chain: MRGSHHHHHHGSDLGKKLLEAARAGQDDEVRILMANGADVNAKDYFSHTPLHLAARNGHLKIVEVLLKAGADVNAKDFAGKTPLHLAANDGHLEIVEVLLKHGADVNAQDIFGKTPADIAADAGHEDIAEVLQKLGSPTPTPTTPTPTPTTPTPTPTGSRSDLGKKLLEAARAGQDDEVRILLKAGADVNAKDRYGDTPLHLAADAGHLKIVEVLLKAGADVNAEDYFGNTPLHLAASAGHLEIVEVLLKAGADVNAKDDAGNTPLHLAANTGHLKIVEVLLKAGADVNAQDKSGKTPADLAADAGHEDIAEVLQKLGSPTPTPTTPTPTPTTPTPTPTGSRSDLDKKLLEAARAGQDDEVRILLKAGADVNAKDYLGWTPLHLAAHEGHLEIVEVLLKAGADVNAKDVSGYTPLHLAAADGHLEIVEVLLKAGADVNAKDNTGWTPLHLSADLGHLEIVEVLLKAGADVNAQDKFGKTAFDISIDNGNEDLAEILQKLGSPTPTPTTPTPTPTTPTPTPTGSRSDLGKKLLEAARAGQDDEVRILMANGADVNAKDYFSHTPLHLAARNGHLKIVEVLLKAGADVNAKDFAGKTPLHLAANDGHLEIVEVLLKHGADVNAQDIFGKTPADIAADAGHEDIAEVLQKLN

T2 sequence (P14210 32-728 limits assumed): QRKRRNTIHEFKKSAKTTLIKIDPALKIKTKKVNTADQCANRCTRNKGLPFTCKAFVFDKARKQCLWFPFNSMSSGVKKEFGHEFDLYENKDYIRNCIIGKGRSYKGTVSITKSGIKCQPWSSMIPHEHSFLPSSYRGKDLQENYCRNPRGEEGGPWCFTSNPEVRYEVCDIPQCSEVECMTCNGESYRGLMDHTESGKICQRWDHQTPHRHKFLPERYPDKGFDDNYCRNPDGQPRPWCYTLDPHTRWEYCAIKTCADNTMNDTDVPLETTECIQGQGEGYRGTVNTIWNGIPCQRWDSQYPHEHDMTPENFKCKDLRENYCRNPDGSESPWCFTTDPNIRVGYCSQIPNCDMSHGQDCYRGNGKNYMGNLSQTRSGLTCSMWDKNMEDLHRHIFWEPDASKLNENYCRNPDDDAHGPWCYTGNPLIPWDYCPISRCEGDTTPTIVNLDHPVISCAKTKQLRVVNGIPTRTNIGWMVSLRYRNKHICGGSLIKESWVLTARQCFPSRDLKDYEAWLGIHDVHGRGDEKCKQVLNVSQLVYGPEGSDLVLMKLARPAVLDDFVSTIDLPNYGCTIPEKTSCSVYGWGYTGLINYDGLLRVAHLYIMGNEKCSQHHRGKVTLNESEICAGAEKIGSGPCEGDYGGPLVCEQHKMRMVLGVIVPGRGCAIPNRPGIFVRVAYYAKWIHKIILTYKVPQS
T3 sequence (P02768 25-609 limits assumed): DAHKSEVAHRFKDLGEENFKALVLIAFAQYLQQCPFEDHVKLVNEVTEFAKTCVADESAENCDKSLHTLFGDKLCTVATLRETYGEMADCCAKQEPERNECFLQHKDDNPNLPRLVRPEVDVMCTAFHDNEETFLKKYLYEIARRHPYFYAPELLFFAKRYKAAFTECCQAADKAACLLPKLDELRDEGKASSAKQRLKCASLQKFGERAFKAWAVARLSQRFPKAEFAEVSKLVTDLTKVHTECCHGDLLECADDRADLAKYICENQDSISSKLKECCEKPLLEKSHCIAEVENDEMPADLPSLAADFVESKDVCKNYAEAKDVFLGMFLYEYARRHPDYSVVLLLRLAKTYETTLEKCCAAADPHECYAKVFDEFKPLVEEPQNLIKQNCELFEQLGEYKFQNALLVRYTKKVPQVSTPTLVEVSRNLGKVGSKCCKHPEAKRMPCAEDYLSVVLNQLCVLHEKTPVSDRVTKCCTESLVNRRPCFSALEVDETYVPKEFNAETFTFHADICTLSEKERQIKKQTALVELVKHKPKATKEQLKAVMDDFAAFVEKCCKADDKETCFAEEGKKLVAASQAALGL

In the first test the target is T1, human VEGF-A (human, UniProt P15692-4 27-191, limits assumed).
T1 construct: Recombinant, bought or produced in CHO or Pichia pastoris; also called hVEGF-A
T1 sequence (P15692 other isoform, or with tags, fused parts or gaps limits assumed): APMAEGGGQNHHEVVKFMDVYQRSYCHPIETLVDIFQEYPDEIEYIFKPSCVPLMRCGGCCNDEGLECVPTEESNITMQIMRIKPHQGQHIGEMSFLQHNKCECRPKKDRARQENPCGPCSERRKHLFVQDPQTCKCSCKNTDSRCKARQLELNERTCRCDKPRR
Put plainly: SPR (ProteOn). Here is the method:
(§1) SPR was measured using a ProteOn instrument (BioRad) and measurement was performed according standard procedures known to the person skilled in the art.
With B1, the Kd is 141 pM.
B2: the binding result was “binds”.
The molecule B3 yielded a dissociation constant Kd of 94 pM.
On the same count and under the same terms, under B4 stands 96 pM.
B5: the binding result is recorded as “binds”.
The same measure, in the same setting: the value for B6 was “binds”; that for B7 was “binds”; that for B8 was “binds”.

The next test has as its target T2, human HGF (human, UniProt P14210 32-728).
T2 construct: also called hepatocyte growth factor
As to the kind of experiment: SPR (ProteOn). As for the experimental part:
as §1
In turn, B9 returned a Kd of 51 pM.
Still for that read-out and setting: under B10 stands 26 pM.
As for B11, the binding result is on record as “binds”.
Consider B12, for which binding was characterised by a dissociation constant (Kd) of 16 pM.

A further test concerns the target T3, human serum albumin (human, UniProt P02768 25-609).
T3 construct: For SEC-MALS purified from CSL Behring 20% solution; also called HSA; SA (human)
As to the kind of experiment: size exclusion chromatography coupled to static light scattering.
As to B13, the binding result is recorded as “binds”.
The same measure, in the same setting: the value for B14 was “binds”; that for B15 was “binds”.
On the same count and under the same terms, under B16 stands “binds”.

Another test deals with T2, human HGF. As to the kind of experiment: cMet receptor competition ELISA; 5 nM human HGF, immobilised human cMet. The text has this: Such assays are well known to the person skilled in the art. For designed ankyrin repeat domains with binding specificity to VEGF-A, a quantitative sandwich enzyme immunoassay technique was used according to the manufacturer (VEGF-A Quantikine kit DVE00, R&D Systems). A monoclonal antibody specific for VEGF-A was pre-coated onto a microplate. VEGF-A standards and mixtures of VEGF-A (20 pM) and Protein #18, #19, or #20 at varying concentrations were applied to the wells and any free VEGF-A present (i.e. not bound to the designed ankyrin repeat domain) is bound by the immobilized antibody. After washing away any unbound substances, an enzyme-linked polyclonal antibody specific for VEGF-A is added to the wells. Following a wash to remove any unbound antibody-enzyme reagent, a substrate solution is added to the wells and color develops in proportion to the amount of VEGF-A bound in the initial step. The color development is stopped and the intensity of the color is measured. […] IC₅₀ values were calculated from such titration curves obtained as described above using Graph Pad Prism software and standard procedures known to the person skilled in the art. For designed ankyrin repeat domains with binding specificity to HGF, a cMet receptor competition assay was performed. For that purpose, 5 nM of human cMet receptor in PBS were immobilized on Maxisorp plates overnight at 4° C. After washing with PBS 0.05% TWEEN 20, the plate was blocked for 2 h with shaking at 300 rpm using PBS containing 0.05% TWEEN 20 and 0.25% Casein at RT. A constant concentration of 5 nM human HGF was pre-incubated for 30 min at RT with a 1000 nM-1 pM of Proteins #23, #26, #28, and #29 (1:4 dilution series each) on a dilution plate in PBS 0.05% TWEEN 20. After washing of the ELISA plate with PBS 0.05% TWEEN, pre-incubated samples were transferred to the ELISA plate and plate was incubated for 2 h at RT with shaking at 300 rpm. After washing with PBS 0.25% TWEEN, 200 ng/ml anti human HGF antibody was added for 1 h at RT with shaking at 300 rpm. After washing with PBS 0.05% TWEEN, 100 ng/ml HRP conjugated polyclonal anti HGF species antibody was added for 30 min at RT with shaking at 300 rpm. Detection was using 1:3 diluted BM blue POD (Roche).
In turn, B9 registered an IC50 of 623 pM.
The molecule B10 showed an IC50 of 955 pM.
On the same count and under the same terms, the value for B12 was 915 pM.
